Measured values from paper PMC4537050, “A long pentraxin-3-derived pentapeptide for the therapy of FGF8b-driven steroid hormone-regulated cancers” (Oncotarget, 2015).

How the values were obtained:
[1] = molecular target: Human recombinant FGF8b (fibroblast growth factor-8b) (human)
[2] = molecular target: FGF2 (UniProt P09038); experiment: SPR; BIAcore X-100; FGF8b (20 μg/ml in 10 mM sodium acetate, pH 6.0) or other FGFs (10 mM sodium acetate at optimal pH) immobilised on a CM5 sensor chip by EDC/NHS; peptide injected (ARPCA 8 μM to 2000 μM), 4 min at 30 μl/min, 10 min dissociation, in HBS; equilibrium values fitted with the Langmuir equation for monovalent binding
[3] = molecular target: FGF1 (UniProt P05230); experiment: as above
[4] = molecular target: Human recombinant FGF8b (fibroblast growth factor-8b) (human); experiment: as above

B1: Ac-ARPCA-NH2, acetylated pentapeptide corresponding to PTX3(100-104) (peptide)
peptide: Ac-ARPCA-NH2
B1 showed an inhibition of HUVEC proliferation in response to 30 ng/ml FGF8b (viable cell counts at 48 h) [1] of 30 µM, a Kd [2] of 1700 µM and a Kd [3] of 227 µM. The Kd [4] was 278 µM.
